B1: RHOBTB3 (parent)
chain: KVVEAHKIVLCAVSHVFMLLFNVK
B2: IMPA1 (parent)
chain: FIGEESVAAGEKSILTDNPTWIID

Variants of: B1
Test: protein stability index of a GFP-peptide fusion (GPS, HEK-293T) (PSI 1-6); higher = more stable
Conditions: c terminus: a fixed tail appended
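Note: lentivirally expressed fusions sorted by FACS into six bins by GFP to DsRed ratio, PSI derived from sequencing read proportions per bin multiplied by bin number.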

Protein stability index, by site and new letter:
L19: G 2.75 | D 3.41 | A 2.69 | E 2.2 | Y 2.59 | R 3.74 | S 2.2 | I 3.67 | W 3.11 | T 3.4 | C 2.24 | P 2.31 | N 2.18 | F 3.32
K24: V 3.19 | H 1.55 | Y 2.57 | P 3.35 | R 2.48 | D 3.08 | N 4.04 | F 2.39 | I 2.06 | W 2.42 | G 2.28 | T 2.95 | E 3.19 | A 3.31 | L 2.21 | C 2.8 | M 2.27
L20: Q 2.37 | Y 3.49 | R 1.77 | W 1.9 | P 2.49 | I 1.74 | F 2.97 | S 2.6 | E 1.65 | N 3.15 | V 2.42 | H 3.28 | A 3.27 | G 1.26 | K 1.89 | D 3.54 | M 2.63
V16: S 3.16 | M 2.3 | G 3.44 | I 2.65 | N 3.11 | Y 2.19 | W 3.09 | A 2.97 | Q 3.14 | E 3.26 | P 3.16 | D 2.39 | H 2.98 | T 3.44 | F 2.99 | L 2.43 | K 3.55 | R 2.79 | C 3.59
S14: T 2.95 | Y 2.55 | V 2.49 | R 1.41
V23: R 3.19 | D 2.29 | E 3.25 | F 2.99 | I 2.57 | L 2.62 | H 3.18 | W 2.5 | T 3.33 | Q 1.91 | G 3.05 | C 2.47 | S 2.44 | P 2.86 | Y 3.03 | K 3.66 | M 1.75
N22: S 2.72 | K 1.9 | H 2.8 | Y 1.85 | D 3.27 | G 2.71 | E 2.47 | T 4.37 | C 2.31 | R 2.69 | P 2.1 | Q 2.84 | F 2.43 | M 3.79 | L 2.42 | A 2.86 | I 3.19
M18: G 2.75 | D 1.92 | F 3.57 | N 3.02 | A 3.04 | P 2.3 | I 3.05 | S 1.95 | C 2.3 | H 2.34 | T 2.23 | E 2.48 | Q 2.43 | L 3.85 | K 1.55 | R 1.14 | Y 2.5
F17: E 3.12 | R 2.23 | W 2.49 | G 3.57 | A 2.4 | I 2.06 | H 3.54 | V 1.88 | C 3.12 | D 2.52 | K 2.76 | S 2.33 | M 2.78 | T 2.9 | Q 2.41
H15: D 3.14 | F 2.06 | K 2.17 | T 1.92 | P 1.89 | I 3.89 | V 3.1 | Q 2.78 | C 3.87 | Y 3.36 | N 3.41 | R 2.27 | S 2.82
F21: V 3.87 | P 1.98 | M 3.68 | N 2.8 | K 1.76 | W 2.5 | G 4.01 | A 3.13 | L 2.76 | Y 2.14 | I 3.17 | E 1.88 | H 2.51 | D 3.1 | R 1.81

Variants of: B2
Test: as above
Conditions: c terminus: a fixed tail appended

Protein stability index, by site and new letter:
E5: P 2.35 | V 3.68 | Y 2.52 | C 2.7 | H 1.93 | Q 2.38 | I 3.46 | G 2.79 | N 1.53 | R 2 | K 1.88 | T 2.38 | L 1.71 | W 1.29 | M 2.31 | S 1.92 | D 1.89 | A 2.05 | F 3.35
E4: P 1.77 | Y 1.9 | K 1.83 | R 2.04 | Q 1.5 | S 1.8 | M 2.35 | N 1.98 | C 2.04 | H 1.76 | T 1.85 | F 3.31 | A 2.54 | W 3.71 | D 2.01 | V 1.53 | G 2.14 | I 1.84 | L 1.8
I2: K 4.42 | S 3.65 | T 2.83 | C 2.27 | L 2.99 | D 4.79 | Q 3.89 | N 4.25 | V 1.1 | Y 3.4 | W 2.74 | R 4.28 | M 3.7 | H 2.59 | A 2.59 | P 3.05 | G 4.24 | F 3.65 | E 4.82
V7: P 2.19 | I 1.92 | L 2.25 | E 3.03 | A 2.46 | M 1.94 | T 2.28 | R 1.85 | N 2.4 | K 2.53 | G 2.15 | F 2.05 | C 2 | Y 2.01 | D 2.71 | Q 2.19 | H 2.06 | W 1.94 | S 2.17
A8: Q 2.29 | G 2.46 | M 2.05 | V 2.52 | C 1.55 | W 1.74 | T 2.13 | F 1.84 | R 1.62 | D 2.72 | L 2.08 | S 2.3 | Y 2.39 | H 1.75 | P 2.54 | N 2.23 | I 1.58 | E 2.79 | K 2.35
G3: Q 2.52 | W 1.59 | K 2.17 | R 1.64 | N 1.99 | V 2.8 | M 1.78 | E 3.55 | T 1.92 | I 1.4 | L 1.6 | Y 1.88 | D 3.27 | A 2.05 | P 1.87 | S 1.89 | C 1.31 | F 1.93 | H 1.86
A9: Q 2.24 | N 2.03 | K 1.96 | G 2.09 | T 2.1 | H 1.8 | E 2.42 | V 2.31 | F 2.04 | P 2.52 | L 1.78 | R 1.5 | S 1.95 | C 1.84 | D 2.98 | M 1.75 | I 1.81
S6: Y 1.51 | E 3.07 | P 3.1 | N 2.25 | H 2.29 | I 1.73 | K 1.57 | T 2.23 | G 2.42 | W 2.53 | C 1.7 | D 2.56 | A 2.01 | Q 2.42 | F 1.81 | V 1.7 | L 2.24 | M 2.07 | R 1.51
F1: G 4.86 | Q 4.87 | C 4.46 | L 4.34 | R 4.38 | M 4.6 | P 4.56 | I 3.98 | S 4.96 | Y 2.54 | H 4.56 | A 4.65 | N 4.45 | T 4.76 | K 4.61 | V 4.52 | D 5.07 | E 4.81 | W 3.74

Source: the supplement of paper PMC10567573
